± gives the standard deviation of the averaged measurements.
B1: library; numbered along this chain (parent)
chain: MNIQIGELAKRTACPVVTIRFYEQEGLLPPPGRSRGNFRLYGEEHVERLQFIRHCRSLDMPLSDVRTLLSYRKRPDQDCGEVNMLLDEHIRQVESRIGALLELKHHLVELREACSGARPAQSCGILQGLSDCVCDTRGTTAHPSD

Assays:
[1] = variants of: B1; assay: sfGFP reporter fluorescence (15 h) (µM FITC); higher = higher leak; conditions: library round: Round 0; ligand: none
Summary of the method: (§1)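 An Echo normalized PCR-made linear PbrR templates to 5 nM and assembled 1 μL reactions in BL21 Star (DE3) PANOx-SP extract carrying the pPbrR-sfGFP reporter plasmid and 30 μg/mL GamS. Reactions received 1 µM lead chloride, 30 µM zinc acetate or no metal and stood 15 hr at 30 °C. Fluorescence at 485/528 nm (Synergy Neo2) was converted with FITC standard curves made in 50 mM sodium borate pH 8.5. Endpoint sfGFP signal is given in µM FITC, from up to three biological replicates.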

[2] = variants of: B1; assay: sfGFP reporter fluorescence (15 h) (µM FITC); higher = stronger transcriptional activation; conditions: library round: Round 0
Summary of the method: as §1

| Variant | sfGFP reporter fluorescence [1] | sfGFP reporter fluorescence ([2]; ligand: 1 µM Pb) | sfGFP reporter fluorescence ([2]; ligand: 30 µM Zn) |
| --- | --- | --- | --- |
| R111V | 0.0586 ± 0.001 | 0.0744 ± 0.0021 | 0.483 ± 0.0073 |
| P15A | 0.0674 ± 0.0042 | 0.0953 ± 0.0088 | 0.691 ± 0.02 |
| H89R | 0.0685 ± 0.0042 | 0.0936 ± 0.0054 | 0.975 ± 0.017 |
| H89C | 0.0553 ± 0.0015 | 0.0574 ± 0.0039 | 0.0614 ± 0.0034 |
| H89F | 0.0581 ± 0.0039 | 0.0566 ± 0.0039 | 0.063 ± 0.0021 |
| H89Q | 0.0645 ± 0.0047 | 0.108 ± 0.0029 | 1.3 ± 0.08 |
| L129V | 0.0557 ± 0.001 | 0.05717 ± 0.00052 | 0.05351 ± 0.00052 |
| L129C | 0.0561 ± 0.0015 | 0.05791 ± 0.00052 | 0.05443 ± 0.00026 |
| L129N | 0.0586 ± 0.0015 | 0.05827 ± 0.00052 | 0.0535 ± 0.0036 |
| L129H | 0.0586 ± 0.0015 | 0.0586 ± 0.0021 | 0.0583 ± 0.0015 |
| M60L P61N D64K K104V | 0.366 ± 0.0044 | 1.11 ± 0.035 | 3.03 ± 0.15 |
| I97K | 0.0607 ± 0.0029 | 0.0597 ± 0.0021 | 0.102 ± 0.006 |
| M60L D64K K104V G128I | 2.23 ± 0.091 | 3.3 ± 0.69 | 4.17 ± 0.28 |
| C114Q | 0.0568 ± 0.001 | 0.05864 ± 0.00052 | 0.0533 ± 0.0018 |
| C114W | 0.0586 ± 0.001 | 0.0592 ± 0.0013 | 0.05241 ± 0.00052 |
| C114E | 0.05699 ± 0.00026 | 0.0579 ± 0.001 | 0.0533 ± 0.0023 |
| C114L | 0.0561 | 0.0583 ± 0.0015 | 0.0531 ± 0.0015 |
| C55K | 0.0608 ± 0.0015 | 0.061 ± 0.0018 | 0.0607 ± 0.00078 |
| C55I | 0.0583 ± 0.0026 | 0.0616 | 0.112 ± 0.0057 |
| C55L | 0.0608 ± 0.001 | 0.0702 ± 0.0013 | 0.173 ± 0.0091 |
| C55G | 0.0568 ± 0.0015 | 0.057 ± 0.00078 | 0.07 ± 0.0015 |
| R137A | 0.0579 ± 0.0021 | 0.06524 ± 0.00052 | 0.454 ± 0.062 |

| Variant | sfGFP reporter fluorescence [1] | sfGFP reporter fluorescence ([2]; ligand: 1 µM Pb) | sfGFP reporter fluorescence ([2]; ligand: 30 µM Zn) |
| --- | --- | --- | --- |
| M60L D64K G128I | 2.06 ± 0.074 | 3.47 ± 0.32 | 4.32 ± 0.22 |
| L68T | 0.0612 ± 0.0015 | 0.0605 ± 0.001 | 0.0717 ± 0.0013 |
| L68C | 0.0678 ± 0.0031 | 0.0874 ± 0.0044 | 0.504 ± 0.017 |
| L68H | 0.0623 ± 0.0026 | 0.0577 ± 0.0013 | 0.0795 ± 0.0015 |
| L68I | 0.0599 ± 0.0013 | 0.059 ± 0.0021 | 0.214 ± 0.047 |
| P61E | 0.0693 | 0.0991 ± 0.0049 | 0.338 ± 0.042 |
| P61G | 0.0819 ± 0.0029 | 0.2936 ± 0.0021 | 2.2 ± 0.053 |
| R39W | 0.05956 ± 0.00026 | 0.0599 ± 0.00078 | 0.06011 ± 0.00052 |
| R39C | 0.0599 ± 0.0013 | 0.061 ± 0.00078 | 0.057 ± 0.0029 |
| R39K | 0.0612 ± 0.0015 | 0.0623 ± 0.0036 | 0.14 ± 0.022 |
| R39A | 0.0651 ± 0.0018 | 0.0599 ± 0.0029 | 0.0678 ± 0.0021 |
| R39Q | 0.0612 ± 0.001 | 0.0599 ± 0.0018 | 0.0583 ± 0.001 |
| G6M | 0.0603 ± 0.0013 | 0.0586 ± 0.001 | 0.0654 ± 0.0034 |
| G6F | 0.0592 ± 0.0018 | 0.06029 ± 0.00026 | 0.0629 ± 0.00078 |
| G6K | 0.0625 ± 0.0013 | 0.06414 ± 0.00052 | 0.222 ± 0.0031 |
| G6R | 0.0605 ± 0.001 | 0.0632 ± 0.00078 | 0.116 ± 0.0039 |
| L62W | 0.0616 ± 0.0042 | 0.0603 ± 0.0034 | 0.0665 ± 0.0013 |
| V46D | 0.0581 ± 0.0034 | 0.0612 ± 0.0015 | 0.0735 ± 0.0013 |
| D64A | 0.0874 ± 0.0065 | 0.158 ± 0.049 | 2.22 ± 0.24 |
| D64W | 0.0815 ± 0.0029 | 0.167 ± 0.0052 | 1.64 ± 0.044 |
| Y22L | 0.0614 ± 0.00078 | 0.0597 ± 0.0015 | 0.07183 ± 0.00052 |
| Y22M | 0.0638 ± 0.001 | 0.0612 ± 0.0031 | 0.064 ± 0.0013 |

| Variant | sfGFP reporter fluorescence [1] | sfGFP reporter fluorescence ([2]; ligand: 1 µM Pb) | sfGFP reporter fluorescence ([2]; ligand: 30 µM Zn) |
| --- | --- | --- | --- |
| Y22T | 0.05937 ± 0.00052 | 0.06084 ± 0.00052 | 0.06121 ± 0.00052 |
| M60E | 0.107 ± 0.00052 | 0.463 ± 0.039 | 1.67 ± 0.012 |
| M60R | 0.0614 ± 0.0034 | 0.0612 ± 0.001 | 0.0619 ± 0.0015 |
| M60H | 0.0623 ± 0.0015 | 0.0614 ± 0.00078 | 0.0638 ± 0.0015 |
| C79L | 0.0555 ± 0.0023 | 0.0553 ± 0.0021 | 0.05498 ± 0.00052 |
| C79K | 0.06011 ± 0.00052 | 0.0614 ± 0.00078 | 0.0548 ± 0.00078 |
| S34A | 0.0645 ± 0.001 | 0.0654 ± 0.00078 | 0.328 ± 0.018 |
| E94V | 0.059 ± 0.0042 | 0.0847 ± 0.0052 | 0.739 ± 0.052 |
| E94M | 0.0581 ± 0.0018 | 0.0726 ± 0.0047 | 0.598 ± 0.031 |
| E94T | 0.0673 ± 0.0029 | 0.108 ± 0.03 | 1.27 ± 0.29 |
| E94D | 0.0579 ± 0.0052 | 0.0623 | 0.32 ± 0.013 |
| E109N | 0.05974 ± 0.00052 | 0.0845 ± 0.0044 | 1.47 ± 0.018 |
| L126V | 0.0555 ± 0.0013 | 0.0581 ± 0.00078 | 0.0586 |
| L126R | 0.0619 ± 0.0015 | 0.05992 ± 0.00026 | 0.0572 ± 0.0021 |
| L126W | 0.0586 | 0.0594 ± 0.0026 | 0.0612 |
| L126Y | 0.0596 ± 0.0018 | 0.05937 ± 0.00052 | 0.0561 ± 0.0021 |
| P30T | 0.06395 ± 0.00026 | 0.0887 | 0.917 ± 0.17 |
| P30V | 0.0619 ± 0.001 | 0.0924 ± 0.001 | 1 ± 0.0021 |
| P30Q | 0.06395 ± 0.00026 | 0.0925 ± 0.0039 | 1.19 ± 0.066 |
| P30M | 0.06322 ± 0.00026 | 0.09162 ± 0.00052 | 0.859 ± 0.079 |
| E43V | 0.0605 ± 0.0015 | 0.0883 ± 0.014 | 1.17 ± 0.089 |
| E43P | 0.05736 ± 0.00026 | 0.0674 ± 0.0093 | 0.7191 ± 0.0047 |

| Variant | sfGFP reporter fluorescence [1] | sfGFP reporter fluorescence ([2]; ligand: 1 µM Pb) | sfGFP reporter fluorescence ([2]; ligand: 30 µM Zn) |
| --- | --- | --- | --- |
| E43W | 0.061 ± 0.0013 | 0.0995 ± 0.021 | 1.36 ± 0.2 |
| E43S | 0.06102 ± 0.00026 | 0.0889 ± 0.015 | 1.41 ± 0.17 |
| G128I | 0.066 ± 0.0021 | 0.183 ± 0.015 | 1.68 ± 0.19 |
| G128A | 0.09694 ± 0.00026 | 0.211 ± 0.0065 | 2.53 ± 0.17 |
| G128S | 0.0649 ± 0.0036 | 0.0902 ± 0.0083 | 1.3 ± 0.14 |
| L28D | 0.06194 ± 0.00052 | 0.0632 ± 0.00078 | 0.06359 ± 0.00026 |
| L28V | 0.06175 ± 0.00026 | 0.0819 ± 0.0013 | 0.5124 ± 0.0026 |
| L28A | 0.06322 ± 0.00026 | 0.0603 ± 0.00078 | 0.0695 ± 0.0013 |
| G36F | 0.0594 ± 0.001 | 0.0638 ± 0.0015 | 0.145 ± 0.0029 |
| G36M | 0.0612 | 0.0667 ± 0.0031 | 0.236 ± 0.028 |
| G36N | 0.064 ± 0.0018 | 0.09 ± 0.006 | 1.41 ± 0.29 |
| G36Q | 0.0592 ± 0.0029 | 0.0676 ± 0.0023 | 0.3562 ± 0.0026 |
| G36D | 0.0616 | 0.0623 ± 0.0021 | 0.0695 ± 0.0018 |
| R118A | 0.0676 ± 0.0018 | 0.0665 ± 0.00078 | 0.168 ± 0.026 |
| E102A | 0.0735 ± 0.0018 | 0.0771 ± 0.0029 | 0.302 ± 0.057 |
| T18A | 0.0612 ± 0.001 | 0.0612 ± 0.0026 | 0.188 ± 0.014 |
| I3F | 0.05552 ± 0.00026 | 0.0643 ± 0.0029 | 0.587 ± 0.019 |
| I3G | 0.061 ± 0.0023 | 0.0755 ± 0.0047 | 0.1957 ± 0.001 |
| F38A | 0.064 ± 0.0039 | 0.0634 ± 0.0026 | 0.379 ± 0.015 |
| R56A | 0.0616 | 0.0616 ± 0.0026 | 0.1308 ± 0.00052 |
| I125D | 0.0585 ± 0.0013 | 0.0583 ± 0.0031 | 0.0559 ± 0.0039 |
| I125P | 0.0559 ± 0.00078 | 0.05791 ± 0.00052 | 0.05351 ± 0.00052 |

From the supplement of paper PMC12783771
